In patent US20250092406:
Read-outs that look alike come from different tables or passages of the source.

Key:
[1] = target: SARS-CoV-2 spike glycoprotein subunit 1 (S1) (SARS-CoV-2) (UniProt P0DTC2); test: BLI
[2] = target: TNF-alpha (UniProt P01375); test: BLI; details: SEQ 37 part DNA primer, selected region TNA 3'-2', 24 C, 2 mM CaCl2
[3] = SEQ 37 part DNA primer, selected region TNA 3'-2', all T = C5-indole carboxamide U (UTrp)
[4] = SEQ 37 part DNA primer, selected region TNA 3'-2', all T = C5-benzyl carboxamide U (UPhe)
[5] = all T = C5-benzyl carboxamide U (UPhe)
[6] = all T = C5-indole carboxamide U (UTrp)

Sequence of TNF-alpha (P01375 77-233): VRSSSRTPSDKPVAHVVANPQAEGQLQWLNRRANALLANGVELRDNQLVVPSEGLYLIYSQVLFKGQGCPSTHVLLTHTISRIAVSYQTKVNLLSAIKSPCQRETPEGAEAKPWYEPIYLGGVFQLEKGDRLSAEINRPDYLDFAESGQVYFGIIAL

Sequence: GTCCCCTTGGGGATACCACCAAACTGTTGGGACTTGTAATGTCGTCATCAGCTAAGAGTC [S1 Trp entry 22]
- Kd [1, 3]: 21.1 nM

Sequence: GTCCCCTTGGGGATACCACCACGAGTAGGCCGCATTATGATGATTTAAACTGTTTCATGC [TNF Trp-3]
- Kd ([2]; all T = C5-indole carboxamide U (UTrp), three replicates 16, 17, 27 nM): 20 nM

Sequence: GTCCCCTTGGGGATACCACCACGATGGACTTGGGTAGCTAGTCAGGTTAGGCTGTTTGGA [S1 Phe entry 11]
- Kd [1, 4]: 22.1 nM

Sequence: GTCCCCTTGGGGATACCACCACTTTTGCTTGAGATTCGGCGCATTTCGTGCAGTGATGTA [TNF Phe entry 5]
- Kd [2, 5]: 27 nM

Sequence: GTCCCCTTGGGGATACCACCAGAACTTCGTCAGCGTCTTACCGAGTCCAAGGACTGGCTA [S1 Phe entry 12]
- Kd [1, 4]: 28.8 nM

Sequence: GTCCCCTTGGGGATACCACCAGAGCAAGTCATGATCGCGAGTTTAGCTTTTTCATTTCCC [TNF Phe entry 9]
- Kd [2, 5]: 86 nM

Sequence: GTCCCCTTGGGGATACCACCAGGCTTATGAAATCTTATGTGAACCGGGCATACGGGCGAT [S1 Phe entry 4]
- Kd [1, 4]: 5.2 nM

Sequence: GTCCCCTTGGGGATACCACCATCGAGTTGTGACGTTAACGATAATAGCCCGCTCCGATTC [S1 Phe entry 13]
- Kd [1, 4]: 31 nM

Sequence: GTCCCCTTGGGGATACCACCATTGTGCGAAGTATACATAGCAGATGCGTGACATAACAAG [S1 Trp entry 20]
- Kd [1, 3]: 5.1 nM

Sequence: GTCCCCTTGGGGATACCACCCGCGGCGTTGCGTAGCGCCAATCCTGCACAGAGGCGGGCG [TNF standard entry 3]
- Kd ([2]; natural bases, R2 0.88): 141 nM

Sequence: GTCCCCTTGGGGATACCACCCGTACAACTCCGGTTTCGGGCGGCCCGTTCTTCAGTTTGA [S1 Trp entry 18]
- Kd [1, 3]: 2.7 nM

Sequence: GTCCCCTTGGGGATACCACCCGTGCACGATCTAGCCAGTGCTCGCTTGAAATGGGCGCAG [S1 Standard-2]
- Kd ([1]; SEQ 37 part DNA primer, selected region TNA 3'-2', natural bases): 34 nM

Sequence: GTCCCCTTGGGGATACCACCCTTAGGTCGGCCTTTGACCATTCGTGCAAAACTTAGCGAA [TNF Phe entry 6]
- Kd [2, 5]: 41 nM

Sequence: GTCCCCTTGGGGATACCACCGAATGCGCTTGAGCGCGCCCGATGATATAGCGAACCAAGC [TNF Phe entry 7]
- Kd [2, 5]: 54 nM

Sequence: GTCCCCTTGGGGATACCACCGACGCTATGACTGGTATGGTGTGTGAGCTTCGAGGTCTGA [TNF Standard-2]
- Kd ([2]; natural bases, three replicates 109, 76, 62 nM, approximate, poor curve fit): 82 nM

Sequence: GTCCCCTTGGGGATACCACCGAGAGTCATAGTAGTTCACGGGTCTGCAGCTTACGCATGT [S1 Phe entry 6]
- Kd [1, 4]: 11.3 nM

Sequence: GTCCCCTTGGGGATACCACCGCGGCCAGATCCCCGATATGTTAACGTCCTTTTATGCGGG [TNA 913]
- Kd ([1]; SEQ 37 part DNA primer, selected region TNA 3'-2', all T = C5-indole carboxamide U (UTrp; from doped Trp-1 library)): 0.85 nM

Sequence: GTCCCCTTGGGGATACCACCGCGGGGGGTGTTGTGTAACTGTTTTTTGCCGGAAAGACGC [TNF standard entry 1]
- Kd ([2]; natural bases, R2 0.88): 42 nM

Sequence: GTCCCCTTGGGGATACCACCGGCACTATCGATTATCGTGCGCATTGGTTGTGTCCAGGCT [TNF Trp entry 10]
- Kd [2, 6]: 7.3 nM

Sequence: GTCCCCTTGGGGATACCACCGGTGTAATAAGGAGAGTACGTCGTTTGGTGGGACCGGGTA [S1 Phe entry 15]
- Kd [1, 4]: 39 nM

Sequence: GTCCCCTTGGGGATACCACCTAAGGAAAGGGGAGCGGGTAGGAGGTTCGTCGGGTGCGAC [S1 Trp entry 19]
- Kd [1, 3]: 4.2 nM

Sequence: GTCCCCTTGGGGATACCACCTACATTACGCGTTAGCGTTAATGGGTATGTCCGGACAGTG [S1 Phe entry 14]
- Kd [1, 4]: 36 nM

Sequence: GTCCCCTTGGGGATACCACCTATTGGAACTCCCGAGCAGGCTGTCCCATGGAAGACTACA [S1 Phe entry 3]
- Kd [1, 4]: 2.6 nM

Sequence: GTCCCCTTGGGGATACCACCTCACGTCTGTTGTACACTTGTGCAATGCAAGGACGGAAAA [TNF Trp entry 11]
- Kd [2, 6]: 12 nM

Sequence: GTCCCCTTGGGGATACCACCTGACACCTGGCACGAATGCGCAGACGACGTTGTTTTGCGT [TNF Phe entry 4]
- Kd [2, 5]: 19 nM

Sequence: GTCCCCTTGGGGATACCACCTGGCGAGGGGTAGTGAGCTGACGGATAGGGCTAGTGGAAC [S1 standard entry 1]
- Kd ([1]; SEQ 37 part DNA primer, selected region alpha-L-threofuranosyl (TNA) 3'-2', natural bases): 17.6 nM

Sequence: GTCCCCTTGGGGATACCACCTGTACGCCATATAGGCAGTCATCGAGCAACGAAGTAATGG [S1 Phe entry 9]
- Kd [1, 4]: 16.7 nM

Sequence: GTCCCCTTGGGGATACCACCTTAATTTTGAGATCTTTGTCGAGTTGCTCGGTGAAAAGTC [TNF Phe entry 8]
- Kd [2, 5]: 70 nM

Sequence: GTCCCCTTGGGGATACCACCTTAGTATTATTATGGGTGCGTGAGTTTCCAAGAAGCGCGT [TNA 949]
- Kd ([1]; SEQ 37 part DNA primer, selected region TNA 3'-2', threomer base modification (side chain not stated, probably UTrp)): 0.7 nM

Sequence: GTCCCCTTGGGGATACCACCTTGGCGAGATCCCCTATACGTGAGCTTCCTTTTATCCTTT [S1 Trp-1]
- Kd [1]: 3.1 nM

Sequence: GTCCCCTTGGGGATACCACCTTTCTATGCATCTCGGGGATGCGGGATATAAAAGAGAGAC [S1 Trp entry 23]
- Kd [1, 3]: 29.1 nM
